Columns and labels:
Type in all cases: cell-based, rat
[1] = test system: PLC; assay: Inositol phosphate production (PLC activation) in cardiomyocyte cultures
Method: rPMT activates PLC. Cardiomyocyte cultures were incubated in media containing 3 μCi/ml [^3H] myoinositol for 96 hr, with 400 ng/ml rPMT for the indicated intervals at the end of this interval (Panel A) or the indicated concentration of rPMT included in the culture medium during the final 24 hr of culture (Panel B). This was followed by 30 min in the presence of 10 mM LiCl to inhibit the hydrolysis of inositol phosphate metabolites. Results are expressed as cpm over basal (mean±SEM; n=3) from a single experiment, and are representative of results obtained in 3 separate culture preparations.
Cardiomyocytes grown in six-well plates were labeled with 3 μCi/ml [^3H]myoinositol for 96 hr. Treatment with rPMT was during the final 24 hr of this interval. Cells were washed to remove unincorporated radioisotope and then incubated for an additional 20 min with HEPES-buffered saline containing 10 mM LiCl. Cells were lysed with 1.05 mls of chloroform/methanol/6M HCl (500:1000:3) and harvested, and lipids were extracted for 30 min at room temperature. 1.05 mls of chloroform/water (1:2) were added, and the mixture was vortexed and centrifuged at 2000 g for 5 min to separate the phases. The aqueous phase was transferred to Dowex anion-exchange columns, and inositol phosphates were eluted sequentially according to standard methods as described previously (13).

[2] = test system: ANF mRNA; assay: Northern blot analysis of ANF mRNA in cardiomyocytes; conditions: rPMT 400 ng/ml or NE 10 μM, 48 hr, serum-free
Method: rPMT mimics the effect of norepinephrine to promote cardiomyocyte hypertrophy. Cardiomyocytes were cultured in serum-free medium without or with rPMT (400 ng/ml) or norepinephrine (NE, 10 μM) for 48 hr. Cardiomyocytes were fixed, permeabilized, and stained with monoclonal anti-α-actinin sarcomeric (Panel A, magnification×100) or subjected to Northern blot analysis for measurements of steady-state ANF mRNA expression (Panel B). Effects of rPMT (black bars) and NE (gray bars) vs. vehicle (white bars) on sarcomeric organization (Panel C), cell size (Panel D), and protein synthesis (Panel E) are illustrated (n=3 for each).
Total RNA from neonatal rat cardiomyocytes were isolated by using a Qiagen kit according to manufacturer's instructions. A rat ANF cDNA probe (˜600 bp) was labeled with [^32P]dCTP. 10 μ/g of total RNA was separated on a 1% agarose gel and transferred to a nylon membrane (Amersham). Prehybridization and hybridization were performed according to standard methods. Normalization of signals was performed with a glyceraldehyde-3-phosphate dehydrogenase probe. Signals were detected by Phosphorimage analysis.

[3] = test system: AKT; assay: Phospho-AKT and total AKT Western blot in cardiomyocytes
Method: rPMT decreases basal AKT phosphorylation and prevents its phosphorylation by EGF. Neonatal rat cardiomyocytes were treated with rPMT (400 ng/ml) for 24 hr (Panel A), 48 hr (Panel B) or with EGF (50 ng/ml) for 5 min. Cell lysates were subjected to SDS-PAGE followed by Western blotting with antibodies that recognize the phosphorylated form or total AKT. Data are from representative gels, with similar results obtained in 3 separate experiments.
Panel A: Cells were treated with norepinephrine (NE, 10 μM) or PMA (100 nM) for 5 min without or with GF109203 (5 μM).
Panel B: Cells were treated with rPMT (400 ng/ml), NE (10 μM) or PMA (100 nM) for 24 hr without or with Go6983 (5 μM). […] Cell lysates were subjected to SDS-PAGE followed by Western blotting using a specific anti-phospho-AKT antibody. Data are from representative gels, with similar results obtained in 3 separate culture preparations.
Specific immunoreactivity for individual PKC isoforms was quantified according to methods described previously. For assays of MAPKs and AKT, cells were exposed to test agents as indicated in individual experimental protocols, washed three times with ice-cold calcium/magnesium-free Dulbecco's PBS (pH 7.1), scraped into ice-cold extraction buffer [20 mM β-glycerophosphate pH 7.5, 20 mM sodium fluoride, 2 mM EDTA, 0.2 mM sodium vanadate, 10 μg/ml aprotinin, 25 μg/ml leupeptin, 50 μg/ml PMSF, and 0.3% (v/v) β-mercaptoethanol], lysed by sonication, and centrifuged at 10,000 g for 10 min at 4° C. The supernatant was diluted in SDS-PAGE sample buffer, boiled for 5 min, and stored at −70° C. Western blot analysis was performed with antibodies that are selective for the phosphorylated (activated) forms of ERK1/2, p38-MAPK, JNK, AKT, and pan-PKC according to manufacturer's instructions. For each panel in each Figure, the results are from a single gel exposed for a uniform duration. Bands were detected by enhanced chemiluminescence and blots were quantified by laser scanning densitometry.

B1: rPMT: recombinant Pasteurella multocida toxin, a Gαq agonist used as pharmacological probe (protein, UniProt P17452 1-1285, looked up)
Dermonecrotic toxin: MKTKHFFNSDFTVKGKSADEIFRRLCTDHPDKQLNNVKWKEVFINRFGQMMLDTPNPRKIVEKIINEGLEKQGLKNIDPETTYFNIFSSSDSSDGNVFHYNSLSESYRVTDACLMNIFVERYFDDWDLLNSLASNGIYSVGKEGAYYPDHDYGPEYNPVWGPNEQIYHSRVIADILYARSVWDEFKKYFMEYWQKYAQLYTEMLSDTFLAMAIQQYTRQTLTDEGFLMVCNTYYGNKEEVQITLLDIYGYPSTDIICIEQKGLPTPKVILYIPGGTQPFVEFLNTDDLKQWIAWHLKDNKHMVAFRKHFSLKQRQEGETFTGIDKALQYIAEESPEWPANKYILYNPTHLETENLFNIMMKRTEQRMLEDSDVQIRSNSEATRDYALSLLETFISQLSAIDMLVPAVGIPINFALSATALGLSSDIVVNGDSYEKRKYGIGSLVQSALFTGINLIPVISETAEILSSFSRTEEDIPAFFTEEQALAQRFEIVEEELHSISPDDPPREITDENLHKIRLVRLNNENQPLVVLRRLGGNKFIRIEPITFQEIKGSLVSEVINPVTNKTYYVSNAKLLGGSPYSPFRIGLEGVWTPEVLKARASVIGKPIGESYKRILAKLQRIHNSNILDERQGLMHELMELIDLYEESQPSSERLNAFRELRTQLEKALYLPEMEALKKQILQIPNKGSGAARFLLRTAMNEMAGKTSESTADLIRFALQDTVISAPFRGYAGAIPEAIDFPVKYVIEDISVFDKIQTNYWELPAYESWNEGSNSALLPGLLRESQSKGMLSKCRIIENSLYIGHSYEEMFYSISPYSNQVGGPYELYPFTFFSMLQEVQGDLGFEQAFATRNFFNTLVSDRLSLMENTMLLTESFDYTPWDAIYGDINYDEQFAAMSINERIEKCMNTYRGVAFQNSSKSIDFFLNNLTTFIDNGLTEIAISDLPYDIVQQEISQFLQGSNEWKTLDAMLFNLDKGDINGAFRKLLQSAKDNNIKFRAIGHSDNSVPPFNNPYKSLYYKGNIIAEAIEKLDREGQKFVVFADSSLLNSTPGTGRPMPGLVQYLKIPATVVDSDGAWQFLPDVASSRVPIEVTELENWQVLTPPQGKILGLKQFKLTAGFPTEQSRLPLLENSVSEDLREELMQKIDAIKNDVKMNSLVCMEAGSCDSVSPKVAARLKDMGLEAGMGASITWWRREGGMEFSHQMHTTASFKFAGKEFAVDASHLQFVHDQLDTTILILPVDDWALEIAQRNRAINPFVEYVSKTGNMLALFMPPLFTKPRLTRAL
- toxin concentration giving maximal activation of inositol phosphate accumulation ([1]; at 24 hr, batches vary): 400 ng/mL
- inositol phosphate accumulation ([1]; cardiomyocytes): promotes inositol phosphate accumulation
- time at which the inositol phosphate response is detectable ([1]; cardiomyocytes, 400 ng/ml): 1 h
- time at which the inositol phosphate response is maximal ([1]; cardiomyocytes, 400 ng/ml): 48 h
- ANF mRNA expression [2]: induce ANF mRNA expression
- total AKT immunoreactivity, treated vs control cultures [3]: similar
- basal AKT phosphorylation after 24 hr treatment ([3]; 24 hr, relative to control cultures): reduced basal AKT phosphorylation
- effect on AKT activation by EGF ([3]; rPMT-treated cultures): blunted
